Source: paper PMC10375638

Target: T1, …3 (SEP3) fused to mVenus, expressed in N. benthamiana (Arabidopsis thaliana), O22456
T1 chain: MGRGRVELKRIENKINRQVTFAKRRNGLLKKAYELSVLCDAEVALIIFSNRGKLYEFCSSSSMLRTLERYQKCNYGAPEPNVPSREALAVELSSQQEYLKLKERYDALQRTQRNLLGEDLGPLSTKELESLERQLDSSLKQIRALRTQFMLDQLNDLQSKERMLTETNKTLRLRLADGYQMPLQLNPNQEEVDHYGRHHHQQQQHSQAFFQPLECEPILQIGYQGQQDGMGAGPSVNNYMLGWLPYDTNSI
Assay: FRET or BRET; FLIM-FRET with one pattern analysis (OPA) in nuclei of transiently expressing N. benthamiana leaf epidermis cells; donor mVenus fusion, acceptor mCherry fusion; BINDING = relative amplitude of the FRET fraction; nucleoli excluded; FRET efficiency only for nuclei with BINDING above 10%
Conditions: remark: other sources report otherwise

- BINDING: 28.1%
- FRET efficiency: 38.5%
B1: …3 (SEP3) fused to mVenus, expressed in N. benthamiana, O22456 1-251 (natural protein)
chain: MGRGRVELKRIENKINRQVTFAKRRNGLLKKAYELSVLCDAEVALIIFSNRGKLYEFCSSSSMLRTLERYQKCNYGAPEPNVPSREALAVELSSQQEYLKLKERYDALQRTQRNLLGEDLGPLSTKELESLERQLDSSLKQIRALRTQFMLDQLNDLQSKERMLTETNKTLRLRLADGYQMPLQLNPNQEEVDHYGRHHHQQQQHSQAFFQPLECEPILQIGYQGQQDGMGAGPSVNNYMLGWLPYDTNSI
